Substrate in the data set: NC(=O)CC[C@H](N)C(=O)O
As to the kind of experiment: cells, lysate or membranes. It is filed as cell-based, Arabidopsis thaliana.

The text below walks through data of publication PMC2811748, “H^+-Independent Glutamine Transport in Plant Root Tips” (PLoS ONE, 2010).

As a reminder, the Km is the substrate concentration at which the rate is half of its maximum.

B1: CAT8 (Arabidopsis thaliana) (protein)
chain: MIPASMEEAHQLESRSDDLSQRRSYWRWRKQDFFPEFSFQSFSTYKSALSATCPRLADRLLSRSSDAYELDAARRESENPMRRCLTWWDLLWLSFGSVVGSGVFVITGQEARVGAGPAVVLSYAISGVSALLSVLCYAEFGVEIPVAGGSFSYLRVELGDFIAFIAAGNILLEAMVGAAGLGRSWSSYLASLVKNDSDYFRIKVDSFAKGFDLLDPVAVAVLLVANGIAMTGTKRTSWLNLITSMVTVCIIVFIVVVGFTHSKTSNLVPFFPYGAKGVVQSAAVVYWSYTGFDMVANMAEETEKPSRDIPIGLVGSMSMITVVYCLMALALTMMVKYTEIDANAAYSVAFAQIGMKWAKYLVGICALKGMTTSLLVGSLGQARYTTQIARSHMIPPWFALVHPKTGTPIYATLLVTILSSIISFFTSLEVLSSVFSFATLFIFMLVAVALLVRRYYVKDVTPEAGLLKFLGFLFLIIASSIGVSALWNSGVKGWIAYTVTGVIWFIGTLGLALLPKYRVPKVWGVPLVPWLPSFSIAMNLFLIGSLGYVAFLRFIICTMVMLLYYLFVGLHATYDVAHQPLEEAKFEGER
notes: CAT8 (At1g17120) expressed in Xenopus oocytes and in yeast 22Δ8AA
As to B1, the Km is 100 µM.
